Source: a protein production outcome set (Wang et al. 2014)

Assay: label from the status in PepcDB records

| Sequence | protein production |
| --- | --- |
| MFVGREQELASLEEFYAKDGIGMTVIYGRRRIGKSTLITEFVKDKKTVFYTATKIGKARNLELFSKQVLDLFMPGIENISFNSIEAVFDFIDKNIANDKIVLVIDELPYWAEKDDSLLSILQKYIDTIWNDKNLKIILCGSALSFMENKVLSEKSPLFGRRDSQIKLESFNYLDSAKFVPNYSNEDKAICYGITGGVAKYLSMIDPKKNIDENIIRLFFRTDGYLYDETRNLLTQEFSDISLVNNIVEQIASGVNTLNTISGKINEKEPTVLYSLEKLISVGLIEKKKCITEEKNKKKTQYVLKDYMFKFWYEFIPKATSVIEMGQGALYYQKAVKPFLHSFMGSVFEEMCRYYTLNQGITGAYGCFVTSVGTWWGVENITDKNGYIRAQSADIDIVALSDIDKKAVIGECKFKNEKIDKGIYETLVRRGTLISNKYKISKYIFFSLSGYTDWFNSLSDEDVLLLTLDSLYR | failed |
| MFVIGIPTLNEADNISRLVKQIDEYAVNLGKEIIIINSDSKSTDGTPQIFLETKTYNTKVSIVSEAKGKGYNVRNIFEYAINHVPNFSGLILIDGDVVSMKKMWLEKMFIAIESGNDLIIPNYARKSFEGNATNHFIYPMLVKIFKRDMPYQCISGDFGFSRGLIKDLTLKCNWHKYTLGYGIDIFLTLTAILKSYKIKEIDLQSKIHKKSFEKIEKIFLEVSQSFFETINDNSLNQDKLRLNINFESHSRQFIKSSDILSSNDIENLKLRALFLLQEEKQYLHGLSEVEWDGILSNTINNIYRYSSEEHSLYLLPLYLLRVYNYLKYN | failed |
| MFVSHGAIVKSAPKHWNGSKCPIRMQVRVPDPDRRSLLRAGAHIILGGLLATVIPGTSPSIAKIREKPTDKGEEAPKIDDEKELDKYVSGLKYEEELYENPDPAEKEVYRTPRVEREPEYKKKEDEILEKESKVLKEEAREAARESEVLRQEFEKR | not failed |
| MFVVANIVVGIAKILDAILNLYFWVIIAAAVLSWVNPDPYNPVVRVVRNLTEPVFYRVRKWLPFTYVGGLDLSPLVVLLGIQIINSVLVQSLYQLAVRLY | failed |
| MFWDSSRLIKLIGFFCLLLAQPLHATILSSALLNEAQQLAEIEPAQAKQAAKNYLSQRELTERKESGSPSAMSREETDRSIRTPASTIEAHKIIAQADYTMGNVRSAIDNLNEAEKLAKEYQLPYMTLDVQLMRNQMIWMYDHNYSAAEDALNQIEKQLDEADSVLQRTDSVRYRLVMQRALLAAHRGDNVGAERLYAQAKSMLEDSRSDLALIDYYTSVGEFYLNSKKYNLALSELLYGYWQSIESDSGTRLAKVNRLLARLFQERRVYDKAIEYLSQAADFYDSYPSSPILADVLEQMGDIYFYQGKFNLALVHYFNVLDHESTSRNINRTIKIRLSLAATYLQLYNYALAEQYLERATELLEYADIPQLEAKAALLKSGLAYHQNDSKKVIENAKKALELVEKAPENKNFIKQQSYRLLGLGYEQAGEYQLSLQAYKKYTSLVRLEQKQLNQISEDAFRQQKEFAEQTIHYVGQSERLEQVEMEHRKFQKISFALFITVLVMFLFIMRRGVIMQRQAGEIEKLRNDLFTHSRSRLRNLRMLNVKLSRSLKKSRDTFEQWQMGELIHEPLNDRLRFVMIDLPFLRSMYVQNGYKAGLELERAFGEYLAERIEKPARLYHFSDANLLYIEPNADRDASAEVMFEKFQAWVDEFATQHNVNRIIRMGISDYPFLPRAYTAINDEELLDLLLLATHIAREVSLKDKQSHWVFLKAIDNAPAASFATGNIRTACQHAINQGLIKIHSSYKNEDDIKKILKNG | failed |
| MGACMKPIGSDGKPIPTPPSLLSFWEVVGVYGRLGLWLGALFIGAVGIFILMDQPPFVQMDWSGLVQQVAAVVALIAIVIPALQVFFALTNRASGSLRPGRYGRLFERRFARFTPQQIEDILQDARAILATMSDSPKRRAWARWVEWLEQRSNLPLAERSGLKIGVYHPRRSKLWIDGAGVALVGALGSWLIWDQRSWMGWAFLGVLGSLFTWGLLATLTERLELSDDSLSYYAFRRQQWSVPRQHVALREAGSSEYQIYDVRTGRLLGEVKGETFGADIVEALADLFPPWLGDEVG | failed |
| MGAFFMSVVSAFAGAAEACRPTGALQNVEVARVVDGDTVRLRDGRSVRLIGINAPELAHNGRTTEPFAEAAKQRLQALVSASDGRLALQPGRQARDHYGRTLAHLFDASGANLEARLLGEGLGYLVAVAPNTELTACQQAAERAARSANLGVWKRSPVLSLDRLAQSGFAVVRGRVLEVERNRGGIWLEMDGPLVLRIEPKVLKAFDAKRVMQMAGRSLEVRGWVVDRSRRGAVPAGKARWQMSVTDPAMLEWLPLEHHHHHH | failed |
| MGAIEDIYEDLETDVPEEEFREAVEEKVEQMGGLADEETAAMLLAHELNENEVNAIADIEPGMDEVKFLAKVMAIGDLKTFERDDEDEDGRVINVEAADESGSLRLAFWDGQAVDIDEGKLEVGDVLRVKGRPKDGYNGLEVSVDKAEPDEDATIDVEPGAGSSIDALTMGQSDVTLRGLVLDTDSIRTFDRDDGSEGRVSNLTLGDETGRIRVTLWDDRADRADELDAGAAVEIIDGYVRERDGSLELHVGDQGAVDEVEDDVAFEPDADPIAEVELEETADIAGVVRSADPKRTFDRDDGSEGQVRNVRIQDATGDIRVALWGDKADKDIAPGDEVLAADVEIQDGWQDDKEASASWNSTIVVLDDGADLATGGAGGGASAETTDAEHAGLSSFGDEGDDTDADSSGNEAAAVSAGTGDTSPDGGAQSAGQQVEFTGTVVQTGDPVVLDDGEQTMSVETGERVQLGQEITVRGELRDDRLHAEDVFLEHHHHHH | failed |
| MGAPPPANEDDRLAALHSYNILDTAPEPLYDDITAAAAQLCRTPMALISLIDQDRQWFKSRVGMQPAETPRDLAFCAHAILQPDQMMEVGDTFVDPRFARNALVTGGPQIRFYAGAPLLTSDGVALGTLCVLDRAPRTLSDAERTALQALARQVVTTIELRQAARLLEGDALRDPLTDLWNREGLEHMLEDAAPVAKLHGLAFVLIEIDGFKRLKLQFGSDAADATLVQAARCIETEPQEPGGVARIGAAHFCMVLPGADSAQALASVQRLQTTIAAACWPADTISITAGLVCVAPGEPLDSHVLMARARHALLGAARAGRNCVQRFDGWQTDR | failed |
| MGAVGRGRRMSERHLRRSTHKVGDITLGAVHRLNCHCGAVQIDLDLPHGLVDPRRCDCSMCRRRGAIVASVPLQGLHVRQGEDVLRLYQFNTHAAAHYFCGVCGIYTHHRRRSNPNEYGYNVGCLEGVNPYALNITVPVEDGIHHPADRVAPQLEHHHHHH | failed |
| MGAVVVEPGSSSMVLGPEQVLDRASMHLANGLLGNPDSAAGLEVLLGGLKLRFVSGSAVAVTGAEGMVTLDGTELPLNKAVRVPPGAVLELGPAMFGIRYYLAVQGGISAQGEAAQGEAIRAGAALTFGRPNNHGSPEVNHPARRALDPERPVVARVSRGPQAQNDDAGTWLRLTSEPWILSPESDRAGARLVGRPLDVTSAPIPQAQPLVSGSVLLPSSGLPVIALAGHPDTSQSPVIAVVRDEDLDVLGQARPGQMVHLLG | failed |
| MGAWRFWWDSTRRFYKNWGSYVALIFSTNLVISYLAIPFFNWVLEMLLKWQRVSYVSYTNIGSIIIHQPLAALGMVAILLAIIILVYWQFAFLLLGIMNIFRGRPQTVRAVLRSTVTSLTGTSPSTFLFFIGYFIVILPFGSFIFTTPLLNKAKIPAFIVSYLMENPWMTLGLGCFYLLAGYLGIRLISLLPLMIVDRLPWKTAVTRSWQQTRHHLWRYLWTMIVTLFMIFLIVTTIYTLIYVAQLQFDKTSFAMAAATVNLFIMEAITEIIICYTTAIFMMLIIVCYRQDFTLLRQQPQYFNEAPRLRKLTRASVAIGLLLATSLLVAVNLVYLNGLVITKPIMISHRGVDNGNGVQNTIPALIKTSKEHPDYVEMDIQVTKDHQFVVMHDPTLKALAGVKKKPSQLTLKQLEKITVRENGYQAKIPSFDAYLKAAHKHHQKLLVEIKTSSAYTAADTKRFIDRYGATLLAHHDQVHTLSFKVMRDLKRLDQKQFVSYILPYNLTFPHTVANGYTMEVTTLNDQFVDKADRNHKTVYAWDIDNTDQMDQMMFMGVTGVVTDNLTEMQQEVKSNTDHPSYAKLLLTFMNELSLTSNE | failed |
| MGCAEEKKTDVRWATFNIRYDNPQDSLNNWQYRKDRVCQFIKDHELDIVGMQEVLHNQFQDLRAGLPEYDGIGVGRDDGKTAGEYAPLFYRKDKYEVLDSNTFWLAENPDSVGMMGWDAVCVRIATWAKFKDKATGKIFMAVNTHFDHVGEEARRQSALLIIRKIKEIVGERPAVVTGDFNVTDASDAYETITTNEFVMKDAYKTAARVTGVDYTFHDFARIPAEDCEKIDFIFVTPQVLVKSCEIPAEVPEALLSDHNPQLADLELEHHHHHH | failed |
